Data published in patent EP0935607B1.

How the values were obtained:
[1] = biological target: detergent soluble DR2 purified from an EBV transformed B cell line (human) (UniProt P01903); experiment: time course ELISA at 37°C, 200 nM DR2, 2 µM peptide, L243 capture
[2] = biological target: recombinant HLA-DR2 fusion protein (DRα-Fos / DRβ-Jun heterodimer, DRA*0101 / DRB1*1501) secreted by Pichia pastoris (human); experiment: as above

- time to plateau of binding [1]: > 48 h
- time to 50% maximum binding [2]: 3 h
- time to plateau of binding [2]: 18 h
Substance: biotinylated MBP(85-99) peptide, biotin-SGSG-MBP(85-99) (from UniProt P02686 85-99)
